According to the supplement of paper PMC9732359:
± gives the uncertainty stated by the source.

Assay: protein stability index of a GFP-peptide fusion (yeast GPS) (PSI 1-4); higher = more stable; sorted into four equal gates, so the index is relative within each strain
Outline: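 Sequencing reads from sorted gates were used to score each peptide. The library consisted of tiled 17-residue yeast protein peptides fused downstream of GFP on a Cherry-expressing plasmid, pooled and carried in yeast. Mid-log cultures in leucine-free medium were split into four equal gates by GFP/Cherry ratio, and each gate's plasmids were PCR-amplified and Illumina-sequenced. The protein stability index adds up, over all gates, the read frequency multiplied by the gate number.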

Row | Sequence | protein stability index (doa10∆) | protein stability index (pdr5∆) | protein stability index (san1∆) | protein stability index (ubr1∆)
1 | LLPTIKRTICKKCHRLL [RPR2] | 2.32 ± 0.065 | 2.36 ± 0.054 | 2.26 ± 0.11 | 2.34 ± 0.034
2 | LAELINMTTIADRNDDD [SRB6] | 2.73 ± 0.066 | 2.64 ± 0.078 | 2.75 ± 0.062 | 2.78 ± 0.076
3 | TNIHEPQYINYSSIPSL [SSN2] | 2.89 ± 0.23 | 2.46 ± 0.14 | – | –
4 | HGQKGVCGIIVKQEDMP [RET1] | 2.93 ± 0.24 | 1.35 ± 0.16 | – | –
5 | LGSHSSSQKDGNDFKFN [REC8] | 3.25 ± 0.07 | 3.24 ± 0.063 | 2.91 ± 0.081 | 3.22 ± 0.057
6 | QDHFHRLNYLYQISAYQ [RPR2] | 2 ± 0.041 | 2.43 ± 0.04 | 2.42 ± 0.044 | 2.43 ± 0.026
7 | QDKSKKIMNVTTDSLTK [YMR129W/POM152] | 3.25 ± 0.064 | 2.97 ± 0.06 | 3.1 ± 0.034 | 3.21 ± 0.044
8 | KAAAGAGSAALKIIHDT [RPO31] | 3.45 ± 0.13 | 1.8 ± 0.17 | 1.72 ± 0.13 | 1.77 ± 0.18
9 | TRFKAVVVVGDSNGHVG [RPS2] | 1.87 ± 0.05 | 1.96 ± 0.064 | 1.84 ± 0.11 | 1.99 ± 0.043
10 | KGDGMTSAVASIGSIYQ [RPN1] | 2.67 ± 0.28 | 3.14 ± 0.2 | 2.57 ± 0.23 | 3.03 ± 0.14
11 | TQLKKRAVSGVELRIYV [POP7] | 2.66 ± 0.13 | 2.23 ± 0.11 | 2.44 ± 0.14 | 2.78 ± 0.16
12 | GVTSLIKNLGLPSDRCS [RPP1] | 2.29 ± 0.068 | 2.26 ± 0.072 | 1.5 ± 0.12 | 1.69 ± 0.062
13 | VGEKLVVVVLEEPSASI [SIR3] | 3.07 ± 0.076 | 2.94 ± 0.087 | 3.2 ± 0.052 | 3.1 ± 0.13
14 | TTPVKLGPGIYCDPNTQ [RRP40] | 2.65 ± 0.077 | 2.2 ± 0.076 | 2.74 ± 0.06 | 2.35 ± 0.05
15 | VEIEKRILKLGTQLATL [YGR119C/NUP57] | 2.11 ± 0.23 | 1.22 ± 0.14 | 1.94 ± 0.18 | 1.4 ± 0.066
16 | KDQALIGTINSIVHINS [SIR2] | 1.69 ± 0.035 | 1.66 ± 0.032 | 1.75 ± 0.049 | 1.41 ± 0.027
17 | PNNASSHISASASPHLA [SNF2] | 2.53 ± 0.046 | 2.66 ± 0.044 | 2.51 ± 0.069 | 2.88 ± 0.039
18 | ALIDTEFANFELKDICS [YML103C/NUP188] | 2.12 ± 0.063 | 2.49 ± 0.06 | 2.65 ± 0.063 | 2.16 ± 0.037
19 | PQDYVLERVKRIMEKSV [YML031W/NDC1] | 2.6 ± 0.059 | 2.66 ± 0.045 | 2.55 ± 0.087 | 2.12 ± 0.041
20 | ETKSWINESAENFSNGI [MED1] | 3.04 ± 0.062 | 2.72 ± 0.047 | 2.74 ± 0.056 | 2.77 ± 0.042
21 | DSVAAIGIPVNKASLAQ [QCR2] | 2.63 ± 0.056 | 2.61 ± 0.052 | 2.52 ± 0.081 | 2.82 ± 0.042
22 | FTMMTSEPLTLKVLSEH [PCI8] | 1.73 ± 0.056 | 1.96 ± 0.049 | 1.94 ± 0.095 | 1.54 ± 0.045
23 | PEKKEMIQEVIVEEDLE [FAS2] | 3.14 ± 0.077 | 3.31 ± 0.089 | 3.35 ± 0.045 | 3.36 ± 0.062
24 | YVDFVPMYKELWINYIK [POP4] | 2.33 ± 0.065 | 2.42 ± 0.056 | 2.62 ± 0.068 | 2.7 ± 0.047
25 | SNTVNANNYSSNIGNNS [YDL088C/ASM4] | 3.17 ± 0.14 | 3.39 ± 0.14 | 3.33 ± 0.12 | 3.19 ± 0.066
26 | HDGGFDLVHIKDSLDNT [RPS4A] | 2.05 ± 0.079 | 2.26 ± 0.06 | 2.73 ± 0.12 | 2.33 ± 0.04
27 | IIHFHSHPEKRMIPPRM [SSN3] | 3.09 ± 0.07 | 2.95 ± 0.067 | 3.06 ± 0.065 | 3.13 ± 0.049

Row | Sequence | protein stability index (doa10∆) | protein stability index (pdr5∆) | protein stability index (san1∆) | protein stability index (ubr1∆)
28 | ELDKREDMIDQVSKKLS [SMC3] | 3.12 ± 0.061 | 3 ± 0.082 | 2.93 ± 0.075 | 2.81 ± 0.096
29 | VERGRVGACTDEEMTIS [RRP43] | – | 3.08 ± 0.23 | – | 3.23 ± 0.2
30 | ELQKSLSLEEVEGHLFE [FAS1] | 3.16 ± 0.11 | 3.32 ± 0.16 | 3.35 ± 0.061 | 3.08 ± 0.098
31 | MYILGMCVSKGNASLKY [YCG1] | 1.79 ± 0.083 | 2.42 ± 0.12 | 1.58 ± 0.11 | 2.17 ± 0.091
32 | GNYIKTENATENDQQDN [LIN1] | 2.51 ± 0.098 | 2.62 ± 0.071 | 2.05 ± 0.13 | 2.61 ± 0.086
33 | NLEFDSTNHPDYDVSKK [SRP14] | 3.15 ± 0.092 | 3.25 ± 0.12 | 3.2 ± 0.048 | 3.15 ± 0.065
34 | ENKTKKDNDKNLKFLKN [SRB4] | 3.42 ± 0.064 | 3.4 ± 0.079 | 3.28 ± 0.048 | 3.42 ± 0.057
35 | VGGQFSKVQFDAKTSYP [REC8] | 3.19 ± 0.095 | 3.17 ± 0.094 | 3 ± 0.077 | 3.19 ± 0.055
36 | KKIVDSKKLNLKIHQSH [YMR129W/POM152] | 2.85 ± 0.067 | 2.7 ± 0.056 | 2.44 ± 0.17 | 2.69 ± 0.062
37 | EFVHKYLGEGPRMVRDV [RPT3] | 3.39 ± 0.14 | 3.43 ± 0.084 | 3.14 ± 0.062 | 3.17 ± 0.077
38 | STPGGGSVFNMNGNTNA [YOR098C/NUP1] | 2.87 ± 0.098 | 3.6 ± 0.2 | – | 3.15 ± 0.15
39 | NSTGHSSNTNNNTNNNN [SWI1] | 3.48 ± 0.069 | 3.26 ± 0.066 | 3.17 ± 0.054 | 3.33 ± 0.063
40 | ASINTSATVKTSDLLGS [ECM29] | 3.24 ± 0.24 | 2.96 ± 0.21 | – | 3.25 ± 0.21
41 | STNEDQNNSKHTEDTVN [SRB5] | 2.39 ± 0.1 | 2.1 ± 0.077 | 1.65 ± 0.1 | 2.31 ± 0.051
42 | IINPHAIPSRMTVAHLI [RPB2] | 1.79 ± 0.054 | 2.06 ± 0.044 | 1.86 ± 0.076 | 2.1 ± 0.046
43 | EVTIEDALKVVLRTALV [RPS12] | 3.35 ± 0.11 | 3.31 ± 0.091 | 3.35 ± 0.099 | 3.11 ± 0.067
44 | ALEFVSLLLSSVKESTG [SRB4] | 1.26 ± 0.046 | 1.61 ± 0.043 | 1.4 ± 0.11 | 1.24 ± 0.048
45 | EPIDQNTGIVSSTTGMS [RPT3] | 3.15 ± 0.11 | 2.65 ± 0.22 | 3.39 ± 0.14 | 3.24 ± 0.089
46 | NTTTYKSRPDRPKPVSP [SNF5] | 3.09 ± 0.045 | 3.12 ± 0.05 | 3 ± 0.047 | 2.97 ± 0.042
47 | TGMEPGKTSFFQALGVP [RPP0] | 2.89 ± 0.13 | 3.2 ± 0.098 | 3.23 ± 0.13 | 3.17 ± 0.073
48 | QDRIQDVKLVLASNFDN [MED1] | 2.56 ± 0.057 | 2.67 ± 0.06 | 1.88 ± 0.08 | 2.21 ± 0.036
49 | MGLGKTLQTISFLGYLR [ISW2] | 2.45 ± 0.044 | 2.06 ± 0.054 | 1.67 ± 0.087 | 2.13 ± 0.056
50 | SYFSPINSSNEALVQAF [YCG1] | 2.33 ± 0.063 | 2.19 ± 0.061 | 2.69 ± 0.072 | 2.25 ± 0.042
51 | TMTYEEVAKRLVELMFI [FAS1] | 1.79 ± 0.067 | 2.22 ± 0.071 | 2.52 ± 0.084 | 2.14 ± 0.069
52 | KKKRSRTSATREDTPLS [ISW2] | 3.51 ± 0.16 | 3.37 ± 0.083 | 3.45 ± 0.058 | 3.22 ± 0.13
53 | TEQTKSKNPLSLTEATK [YLR335W/NUP2] | 3.08 ± 0.045 | 2.97 ± 0.053 | 2.91 ± 0.062 | 3.14 ± 0.051
